Source: paper doi:10.1101/388470 (bioRxiv, 2018)

T1: Cdc45-5FLAG (S. cerevisiae), Q08032
T1 chain: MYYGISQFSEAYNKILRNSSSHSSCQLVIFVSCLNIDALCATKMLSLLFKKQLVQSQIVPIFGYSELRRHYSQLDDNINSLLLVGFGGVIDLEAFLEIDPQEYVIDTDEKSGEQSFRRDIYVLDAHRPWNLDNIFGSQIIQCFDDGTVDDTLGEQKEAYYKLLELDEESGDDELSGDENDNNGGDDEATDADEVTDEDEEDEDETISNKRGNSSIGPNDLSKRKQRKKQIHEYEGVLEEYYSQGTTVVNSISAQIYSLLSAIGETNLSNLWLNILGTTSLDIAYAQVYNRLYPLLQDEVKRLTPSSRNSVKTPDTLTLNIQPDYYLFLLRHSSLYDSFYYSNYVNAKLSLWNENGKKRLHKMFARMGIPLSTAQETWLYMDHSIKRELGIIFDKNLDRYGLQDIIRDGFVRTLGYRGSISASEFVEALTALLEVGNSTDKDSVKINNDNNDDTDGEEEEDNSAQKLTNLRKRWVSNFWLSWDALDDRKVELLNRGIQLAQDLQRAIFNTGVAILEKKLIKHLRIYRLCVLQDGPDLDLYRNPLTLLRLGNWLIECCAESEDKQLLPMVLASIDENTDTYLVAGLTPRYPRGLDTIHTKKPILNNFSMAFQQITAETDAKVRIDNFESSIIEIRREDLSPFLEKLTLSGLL

B1: Cdc45-5FLAG, Q08032 1-650 (natural protein)
chain: T1 chain
B2: Psf2-5FLAG (natural protein)
chain: MSLPAHLQQTFSPEEIQFIVENEPIKIFPRITTRQKIRGDDRGTGNHTRWQLITTDDKALNNMVAMRSTEVVLWIALLLKQQSKCSIVAPQWLTTKELDRKIQYEKTHPDRFSELPWNWLVLARILFNKAKDDFHDPIHELRGKIQDLREIRQIKVLKGLKYLNESHLQLDNLSLLEINELRPFITEIMDKLREIHTASLTAGTENDEEEFNI

What was measured:
[1] = molecular target: T1, Cdc45-5FLAG (S. cerevisiae), Q08032; assay: co-sedimentation; details: remark: other sources report otherwise
[2] = molecular target: the molecule itself; assay: co-sedimentation

Binder | stoichiometry N [1] | stoichiometry N [2]
B1 | 2 | –
B2 | – | 2
